The Kd is the constant that tells how readily two partners part at equilibrium.

In test [1] the target is T1, S100A8/S100A9-tetramer (murine) (murine, UniProt P27005 1-89; P31725 1-113).
T1 chain 1: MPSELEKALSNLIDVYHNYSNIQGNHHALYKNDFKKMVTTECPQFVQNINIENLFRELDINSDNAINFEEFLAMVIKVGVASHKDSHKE
T1 chain 2: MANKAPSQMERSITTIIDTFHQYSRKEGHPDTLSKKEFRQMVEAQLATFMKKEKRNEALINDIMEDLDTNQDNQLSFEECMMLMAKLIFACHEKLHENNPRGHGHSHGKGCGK
Kind of test: ELISA. On the technique in general: An ELISA detects its analyte on a solid surface through an enzyme-linked reagent.

A further test concerns the target T2, murine S100A9-N70A (murine, UniProt P31725 1-113, N70A).
T2 sequence (looked up): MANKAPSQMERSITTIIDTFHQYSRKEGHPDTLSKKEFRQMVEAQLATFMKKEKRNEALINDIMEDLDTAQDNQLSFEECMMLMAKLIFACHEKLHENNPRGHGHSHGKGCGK
Briefly: reconstitution by refolding together, anion exchange chromatography; equal amounts of the two purified proteins mixed with 1 mM DTT, denatured at pH 2, renatured by stepwise increase of pH to 7.4; residual homodimers separated by anion exchange chromatography. The following applies: both partners purified.

Another test concerns the target T3, murine S100A9 (murine, UniProt P31725 1-113).
T3 construct: S100A9 (MRP14), murine; also called MRP14
T3 sequence (looked up): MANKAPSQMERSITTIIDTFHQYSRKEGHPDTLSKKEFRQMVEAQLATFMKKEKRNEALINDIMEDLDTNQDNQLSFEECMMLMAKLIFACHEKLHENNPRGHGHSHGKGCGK
The test is described as above. The following applies: both partners purified.

B1: recombinant mouse CD69, His-tagged extracellular domain (domain or fragment)
chain: NVGKYNCPGLYEKLESSDHHVATCKNEWISYKRTCYFFSTTTKSWALAQRSCSEDAATLAVIDSEKDMTFLKRYSGELEHWIGLKNEANQTWKWANGKEFNSWFNLTGSGRCVSVNHKNVTAVDCEANFHWVCSKPSR
B1: in test [1], binding was characterised by a dissociation constant (Kd) of 5.06 nM.

B2: murine S100A8 (natural protein, UniProt P27005 1-89, looked up)
chain: MPSELEKALSNLIDVYHNYSNIQGNHHALYKNDFKKMVTTECPQFVQNINIENLFRELDINSDNAINFEEFLAMVIKVGVASHKDSHKE
notes: S100A8 (MRP8), murine; also called MRP8
B2: the binding result in the test with murine S100A9-N70A and with murine S100A9 was “binds” in each case.

These data come from publication PMC9798971, “Alarming and Calming: Opposing Roles of S100A8/S100A9 Dimers and Tetramers on Monocytes” (Advanced Science, 2022).
